How the values were obtained:
[1] = target: Recombinant C4b α chain (pig); test: SPR; Biacore 8K, single-cycle; C4bα and C4bβ covalently immobilised on CM5 chip (about 1500 RU); CR1-like fragments or mutant as mobile phase, 1.56 × 10^-2 to 4 μM; 25 °C; 10 mM HEPES pH 7.4, 150 mM NaCl, 0.05% Tween-20; apparent KD = kd/ka
[2] = target: Recombinant C4b β chain (pig); test: as above

Substance: 118I mutant of CR1-like CCPs 1-3 (domain or fragment)
- Kd [1]: 271 nM
- Kd [2]: 1200 nM

Reference: paper PMC12846707
